Test results: the NTF2 design screens of Basanta et al. (2020)

Experiment: protease stability score; higher = more stable; yeast display proteolysis, trypsin and chymotrypsin;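 further: relative to predicted unfolded state with 0 unfolded-like and 1 meaning tenfold more protease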

SEEEEESKIISKLAIEETKTGDFESIRRNADPRARSDVDGQEMHGRELLEHIFRWIIEKAGVDKVETDLHELRIVGDKVHVRTKLHIGDWRIEVEIIVRKINGRWHLHSMRFSLR
protease stability score: 0.646

SEEEEESKYALKIERELLYTGDWHLLTRYADPDVRATINGQKVIGRELFSHIFLEELDKLGMRIHDIRETHWTLINGVAIHHMRINTRQGEKSYHTEMNLISLKVDGRWLIQSYELG
protease stability score: 0.523

SEEEEESRFMFELIEHFLKTGNWEMISKLADPNMKTVINGKTYHGREMLIHEFEKLGADHITIHDYKDIDGQVIIHTRIHVGDKTYDVVIISEKVDGKWHLKEIHIR
protease stability score: 1.99

SEEEEESRHAIEMTLKTLITGDEHMIQDLADPRAQTHYGDKEYHGREELFRLMHEFILKIKNLRIELHDHHIQGDKIILDVRWRFDGKSFHVTIESRKINGRWLHHIFIVK
protease stability score: 0.582

SEEEEESRKMLELFKELLETGDEEDMTKLADPNVRIIYDGKHLHGRHVAHDVWHELSNRVKNAKFHFDVIKIVGEKVILEITIHVDGQDIESSTILDKFNGKWYMEEVFFH
protease stability score: 1.92

SEEEEESRRFMQHMSRSLATGDWRQVRNLLDPHVRTDINGRDLHGWRDYVRHVLELGIKHIHIEDIRLVGDYAHIDGEMDVNGRDVRVHILVLKINGRWVIESEELK
protease stability score: 0.427

SEEEEETEEVADLHLETLKTGNEDLLEDLLDPNVRVIVNGKHHIGRHFLLKWVTEFGIKHFELKRREIDIQGEKADIHIQGNMYFNGRTVRAHIHQEVTKFDGRWFNHRVEIEFK
protease stability score: 1.84

SEEEEETRKFAHDLVNIHRTGDERKINDLFDPHVRVHIGNKEIVGRELFARWMHEFLLKHGFTEEIRIDDVDLYGNKAHIDGTLIIRINGVEHRHRVELIVNKINGKWLMEYVRVR
protease stability score: 1.6

SEEEEEVEEFIHIFTESLKTGDEHSLRRLVDPHVRIEWNGRTHHGWQMFTRLVREARVEIVVRDIRVINGRAIINGELRYEQGDKTFTTEIEIIVVKFDGKWHMHHVRYK
protease stability score: 2.21

SEEEEEVHKFMEDLARAYLTGDEKRFRELVDPNVKSNIDGQTIHGREELTKWVSDSAKKYGVDHLEMRVRTINIQGNKAHMDGEIVLEYGDKRVSRQVEIVVTKINGQWLLEREHIH
protease stability score: 1.88

SEEEEEVLRFLKEWIHRLRTGDEDILRELLDPDVRIEAENRESHGREEATRLLSEIRFEHFFIESIKVQGNKVSIHGRVHGVINGKKFKHHIHIILVKVNGKWQFREIDIH
protease stability score: -0.107

SEEEEEVVRIWKLLLELEKTGNEENIARLADPHVRTDINGQESHGREHLAKLVRHLFHEIRIKDFKIRRLELQGEKLIVDGELHGNYDGQHEVVDTEIHIYVVNGKLKSITVRHH
protease stability score: 1.47

SEEEEEWHRLIEHWMRKWLTGDEERLARLADPNVRLEDENHQSHGREEMARFLHEKILKLGVDHTRIRHYRDQGEYLHLDFEVEINGRRVRVKVHVVIIDGVVKELKFHVE
protease stability score: 1.19

SEEEEFAERLVRMFEEELATGDEHKLQRLLDPHVKVEINGREIIGREEWTNHLDHIRLELHDTKLREVRVQGDKIHVHGKTDIIIKVGDKSERHHVEVLFIIKKINGRWILERVHVR
protease stability score: 1.13

SEEEEFARQMMEHFLKNFITGNEELFKENLDPDVRIIIVVNGREFENVGREHFWHHFRRSFEELGVKHLHLKDIRVINGRLFLFAEIEIGDKRVELHFLVLKVDGKWVIEELHIKFL
protease stability score: 2.32

SEEEEFLEKLMREFVHDLLTGDEDRIRELADPHVKFEMDVNGVRFRAHGREEMLRELRRFWKEIRVKHIQTHDVKNVGDKAHSDVREVVEVDGREERHESEIIVVTINGRMQSVVLIFK
protease stability score: 1.52

SEEEEFSHNLLNFMLHVIHTGDFDLLLDLMDPDTRVDINGKRHHGRDAMRIWVTLLGIERVETDVHHISIYGDKARIDGRVHYNGKTQRFEIHSRKIDGKWLNTEIKWD
protease stability score: 1.09

SEEEEFTKLLLELLAHALRTGDESMLQYLADPNVRIDINGKELHGMEVLTHWLRRIDHIDSFFHIDHIDLVDGKLKVNGRTELIVRQGDKSHHSEWDVRIISDKVNGRWLLESISFK
protease stability score: 2.08

SEEEEFVELAVRLFLETMRTGDEKDINRLADPHTRNIVNGRDIIGREELTRQLHEILHFFKNVQVHIEEVRWQGNYIVLKILWNFDGQTMEVHVYARKIDGRWVETEFEFR
protease stability score: 2.08

SEEEEFVEVAIKIVQEIRKTGDEDEQERLADPHVRFDINGQDIHGREKWTKWVHEIRVRMKHVRERHITVINGKAHIHGEVDVHFHVNGVELRIDTKYTVVIEKVNGRWRLREVHLV
protease stability score: 2.22

SEEEEFWKHIAKVMLDLVTTGNEDLFMKMADPNTKSEFNGRTVVGRERIAEILKKFKNITIIIHHIDIQGEKVRIHGRVLIGDKEIEDDWELVVVDGKIQRLHFEHV
protease stability score: 1.29

SEEEEHAEELIRLELEALLTGDEEHMARNLDPNVRININGKDIVGREEVSRFLKHLRVRSIHIEIKDFRVIGNWLHVDGRVHFHGHFDGRKIDSTTQFHMILVKINGRWFIHSVKFQ
protease stability score: 2.6

SEEEEHAKHIARLWMESFYTGDEHHMSHLLDPNVRIIIEIGDKSDEFHGREETVKWVRKYLREMRLKNFEIHDQRVFNGVANDDTIVHGNVDGRERNIRTHIIIVVVNGRVKEVKVEVK
protease stability score: 1.6

SEEEEHEKEVIKRIREAMLTGDEDTLRHLLDPNVRVNIDGVEIVGMEMILRHLREIRVSIKDLKVTHVRSVNGRVEADTRSHLIIIIGDKKYEEESETRFFILKIDGRWLLTTIEFK
protease stability score: 1.49

SEEEEHIHRLARLYWRLWETGDEETLAHLMDPNVRQIIHVGDKEFHNVGREKIIKVTKHVFEKLGVKHIKIRDMRVINGVVEIDTEVNVDGRTFDTRIKVLIVDGRIHELRWIVE
protease stability score: 1.65

SEEEEHIREFWNLLLRAYRTGDEKQLRELFDPHVRIHINGKEIHGMEDMIRHIREIRVIITHLELREFSFFNGRAHVDGERDLRITVGEFHRSHRTDVTIITEKVNGQWRIEEVRVH
protease stability score: 1.46

SEEEEHIREHSERFIEAWKTGDWEELSRMIDPHARIVVNGKEVHGRSDIERMLRETMEKMGANHIQEESVHYQGNKIILHETVNVGDKRLRLTIVIHVVNGKVRRVEFHIEQR
protease stability score: 2.17

SEEEEHLDHALKNIIDLIRTGDENLQRELFDPRVRLVVGDKEFHGWETVVHRLREMRFKDFHVRRERIVGDKVHIDVEVNGNVDGRDDVMRMEIRIDKVNGQWRTKNVILN
protease stability score: 2.05

SEEEEHLLKWFEELITLLLTGDEDRLSELMDPNVRIEIGDKTLVGMEWANHDYTRKIRERGWRIEIIIRELRAQGDKVRARTELRIRFDGREITYETEMILVVVNGRFKRIETRVH
protease stability score: 1.46

SEEEEHSKFLAEILLELMRTGDWRTFEELVDPNARLEIIQGDFTIDIHGREEVSKFLKNEVEQFKNMRVELHRQSAQGNKLHIDGRLKVGDKSHELRIHINVINGKLKQVKIEID
protease stability score: 1.72

SEEEEHSLKIARQWVENVLTGDEHLLRKLADPDTRIIVDGRHYHGWRQEHKVLEEIRIHDMFEKDVEVQGDKIYMNGTVDGEINGKRTRSDVDLIILVVDGRIKQVEINVH
protease stability score: 1.12

SEEEEHTHRISRRFWRFLVTGDEDALLKNADPHVRLVIGDKHSHGRENFKRLLREWLEELGAKHLHIRDLEVQGNKVHTHGEMTVNGRNIETHIELVVIDGRHHSMEFRIG
protease stability score: -0.021

SEEEEHTRHMYELFWRILHTGDEKSFHELADPNVLLRVGDKNFHGREEAERFLHEYWERYKNMRIEMKTFDFQGNKVHSEGVININGVKIRSELELVVFDGRLHSVIVRHR
protease stability score: 2.43

SEEEEHVWEWAKLVIDLWQTGNEEIFKELVDPNARSEFDGVTIHGMHNDLKRIIEELREIRVRIEIHSVRVIDGVLDVDVKLRLHIGDKQREIKIRLHIVVIDGKLKSVHIDKH
protease stability score: 1.9

SEEEEHWHTLAHMIVHWWLTGDEDAFMELADPHVRFEQGDYESVGMENVRERWRMIKEEIRIHEIRVHDVRFINGVIEVDTRLIRTFNGVREEVDYRVEIVEYNGRVKRVKLEIR
protease stability score: 1.33

SEEEEIAERFKKLMFEATHTGDWHTFMRLADPHVRVDINGKERHGREHWVEHERRLGIDHTDIRIRREREINGVMHIDSQLILHFNGVTLTLDHKLILKKVDGKWILHELKVD
protease stability score: -0.054

SEEEEIAHRFRKTVVHALLTGDEDRLRELVDPNYRILIGDKELHGWKSMSEFTHEWRIDHVEIERESVFDGVAHHDIRVDTTVNGKRDTRIVRIIIQKVNGKWVIHSMEIH
protease stability score: 0.53

SEEEEIARELSEEVYRHWHTGDFRMLERYFDPHVRIIYDGRDYHGREIASTVLRETNKEWRTESMEVKDVKFINGKLHVDISSDTLYNGKRVSTSIKIVSVKVDGQWVIHQMKYV
protease stability score: 1.1

SEEEEIARKIADIFFKVMQTGDEDHWLELFDPHTRFESDFNGRTVEIHGRERVREWKRKLEEDLGLTRFEIILRDSHVVNGVIHMDIEVRINGKTRRWIIDLIVINGRVKSLRVEIR
protease stability score: 1.15

SEEEEIARRFISVWLHAFHTGDEKRLEEMIDPHVRVDYNGVEIIGRENWIEFMLTIMRNLGFNHIRVELDHLDFQGDKMRLETTLKRKVNGREERIDTRIHVKKIDGQWIFTHELYK
protease stability score: 0.795

SEEEEIIESFMKELRESHKTGDPTAIDRLADPNTRLLVNGKQHHGWEHILRFLEDLGANHIELEFRDSHLIGDKMHIHGQLVMHINGQRVTIKTHMILSKINGRWYLEHIELR
protease stability score: 1.81

SEEEEILDKLVKHFIHAFRTGDEDRLNELLDPDAKLVIEYGDKRLEHHGRENVLRAWVELIERIKGVRLEWKEIRPQGDFVESRTQLIVNGREVETEVEIIMFNGRFREFTVRIR
protease stability score: 2.11

SEEEEILETVAKKMVDILETGDEDKLTRLADPDVRHRIDVDGRDLSYHGREEINRFMHHWKREWRIDSITVHRVHVINGQIHIDIEVRETVGDKHVIVRRELIIVIVDGRVKRVEIIFR
protease stability score: 0.253

SEEEEILHKMAEDNIQMLQTGDEETLKRLLDPNVRIHIGEFRTHGMEKLSHWLLHLRIRDIRIHSMRIIDGVADIDGTVEIEQGDKRHTVNMRIFIIVINGKNHSFIFRWH
protease stability score: 1.76

SEEEEILRHILERFANVLHTGDFDWLSKMADPHVRFDVNGREFHGREEVIQAVRDWRERLGIKHLHVKDIRLQGDKMHLNGRMEFDGVIEDTRIIHQVVDGRLRSIEIRTK
protease stability score: 0.16

SEEEEILRHIVELLLHILITGNEHALRTLLDPNARVDINGVTIHGREQESHIILEEVERIDHMDLKIEHLHVQGDKVHTKVERTIHIGEKEIRIEEEINLVIFNGRLRVSILHVH
protease stability score: 0.97

SEEEEILRIALEIFIHLWQTGDEDMLKHYADPEVRVHFDGRDYHGMNDLQFFVHELRKRYPGIRLHIEHVEIEVYNGRVFIIIHQRLDFNGQVITEEVRLIVIKINGRWDIHSVKYHSH
protease stability score: 0.756

SEEEEILRRSVEVTLEAFKTGNERILREYLDPHVRFLYNGQEYHGWKDFVRFLINEVRRFDHVEIRLDHWEMQGEKAHFHGRLILDVNGRLEIFRVHIHLFKVDGKWTLRELRIE
protease stability score: 1.83

SEEEEIMQRLLELMLQVFKTGDWKSLTDLLDPHVRLRIHQGDKTLHHHGREEFTERLRKLDEHLGVSRIDVRDHDMHEINGVLIIHLELRVNGRKVHVLILAEKIDGRWLLKSMHLVWH
protease stability score: 1.42

SEEEEIRLDLARLWLELVLTGDEQVYEKLADPNVRFDVNGRELHGRETWIDLLLQFKNVVKRIELKRLDVQGDFVVLDTRLRLVVNGRTETYETWIIFYVVNGRIKEVEIRTT
protease stability score: 1.31
